Laboratory results taken from patent US20260098270.
Read-outs that look alike come from different tables or passages of the source.

Legend:
Troponin I (cardiac) = Troponin I (cardiac) (UniProt P19429); test: filter
[1] = biological target: Influenza hemagglutinin H3N2-HA (Influenza A virus) (UniProt P03438); test: BLI
[2] = biological target: Influenza hemagglutinin H3N2-HA (Influenza A virus) (UniProt P03438); test: filter; conditions: dot blot
[3] = biological target: Influenza hemagglutinin H5N1-HA (Influenza A virus) (UniProt Q8QPL1); test: filter
[4] = biological target: Influenza hemagglutinin H1N1-HA (Influenza A virus) (UniProt Q289M7)
[5] = system: Control lentivirus without spike; test: filter; conditions: three identical arms joined by Trebler, dot blot

Sequence: GGCAGCAGGAAGACAAGACATGGGTGGCGGGGACGGGGCGATGGGAACTTAGATTGCTAGTGGTTCTGTGGTTGCTCTGT [TnAp1]
- Kd (Troponin I (cardiac)): 125 nM

Sequence: GGCAGCAGGAAGACAAGACATGGGTGGCGGGGACGGGGCGATGGGAACTTAGATTGCTAGTGGTTCTGTGGTTGCTCTGTTTTTTCTCTCGC [Trimeric (trident) TnAp1]
- Kd (Troponin I (cardiac); three identical arms joined by Trebler, root TTTTT-Biotin): 4 nM

Sequence: GGGTTTGGGTTGGGTTGGGTTTTTGGGTTTGGGTTGGGTTGGGAAAAA [RHA06]
- Kd [1]: 8 nM

Sequence: GGGTTTGGGTTGGGTTGGGTTTTTGGGTTTGGGTTGGGTTGGGAAAAATTTTTCTCTCGC [Trident RHA06 + antisense 1:1]
- Kd ([2]; Trebler-joined arms, antisense DNA of RHA06 hybridised at AS:aptamer 1:1, one arm blocked): 0.31 nM

Sequence: GGGTTTGGGTTGGGTTGGGTTTTTGGGTTTGGGTTGGGTTGGGAAAAATTTTTCTCTCGC [Trident RHA06 + antisense 2:1]
- Kd ([2]; Trebler-joined arms, antisense DNA of RHA06 hybridised at AS:aptamer 2:1, two arms blocked): 7.9 nM

Sequence: GGGTTTGGGTTGGGTTGGGTTTTTGGGTTTGGGTTGGGTTGGGAAAAATTTTTCTCTCGC [Trimeric (trident) RHA06]
- Kd ([2]; three identical arms (SEQ 12) joined by Trebler, root TTTTT-Biotin, RT): 0.09 nM
- Kd [3]: 0.13 nM
- Kd ([1]; three identical arms (SEQ 12) joined by Trebler, root TTTTT-Biotin): 0.12 nM
- Kd [4]: 0.07 nM

Sequence: TTACGTCAAGGTGTCACTCCGTAGGGTTTGGCTCCGGGCCTGGCGTCGGTCGTCTCTCGCGAAGCATCTCTTTGGCGTGTTTTTTTTTTTTTTT [TMSA52]
- Kd [5]: > 0.5 nM
